The values below come from article PMC4177672, “The Vip1 Inositol Polyphosphate Kinase Family Regulates Polarized Growth and Modulates the Microtubule Cytoskeleton in Fungi” (PLoS Genetics, 2014).

The target in data set [1] is T1, GST-Vip1^1-535 (Saccharomyces cerevisiae, UniProt Q06685).
T1 construct: kinase domain residues 1-535, GST tag kept, E. coli Rosetta, purified
In words: IP7 formation, PAGE with Toluidine Blue stain. Particulars: 1 µg protein; positive control enzyme. Format: biochemical.

For data set [2], the system named is O=P(O)(O)O[C@H]1[C@H](OP(=O)(O)O)[C@@H](OP(=O)(O)O)[C@H](OP(=O)(O)O)[C@@H](OP(=O)(O)O)[C@H]1OP(=O)(O)O. In words: purified protein. Particulars: 0-300 µM IP6; ATP-dependent; 2 µg protein; 6 h.

T1 sequence (Q06685 1-535): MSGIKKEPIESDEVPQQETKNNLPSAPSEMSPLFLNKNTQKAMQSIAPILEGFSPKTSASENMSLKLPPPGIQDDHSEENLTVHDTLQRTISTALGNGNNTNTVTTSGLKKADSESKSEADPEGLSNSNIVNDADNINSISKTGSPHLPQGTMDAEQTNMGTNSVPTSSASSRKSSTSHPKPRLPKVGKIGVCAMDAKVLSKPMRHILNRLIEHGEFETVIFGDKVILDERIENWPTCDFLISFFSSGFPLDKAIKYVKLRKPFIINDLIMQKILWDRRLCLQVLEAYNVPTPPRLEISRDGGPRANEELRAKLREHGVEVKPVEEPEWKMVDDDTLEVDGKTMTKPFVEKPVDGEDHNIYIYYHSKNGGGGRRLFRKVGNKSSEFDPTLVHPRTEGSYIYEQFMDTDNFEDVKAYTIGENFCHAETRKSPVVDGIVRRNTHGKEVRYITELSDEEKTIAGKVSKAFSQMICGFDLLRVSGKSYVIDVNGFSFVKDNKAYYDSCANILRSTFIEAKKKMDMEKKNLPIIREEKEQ

`O=P(O)(O)O[C@H]1[C@H](OP(=O)(O)O)[C@@H](OP(=O)(O)O)[C@H](OP(=O)(O)O)[C@@H](OP(=O)(O)O)[C@H]1OP(=O)(O)O` [IP6]: the “IP7 formation, PAGE with Toluidine Blue stain” value in data set [1] is listed as “S. cerevisiae Vip1 for which enzymatic activity had been demonstrated was used as a positive control”. By Km is commonly meant the concentration of substrate that gives half-maximal velocity. Regarding “GST-Asp1 (full length) (Schizosaccharomyces pombe 972h-)”, the Km in data set [2] is 58.18 µM. Turning to “GST-Asp1 (full length) (Schizosaccharomyces pombe 972h-; H397A)”, the Km in data set [2] was determined as 57.32 µM.
